Results on 9 molecules are retold here after article PMC10383195, “Interactions of the Kv1.1 Channel with Peptide Pore Blockers: A Fluorescent Analysis on Mammalian Cells” (Membranes, 2023).

Experiment [1] addresses T1, mKate2-tagged human Kv1.1 (S369T) channel (K-Kv1.1) (Homo sapiens, UniProt Q09470, S369T).
T1 construct: these fragments were combined and amplified using terminal primers to obtain the whole mutated gene; expressed in transfected cells; host or cells: mouse neuroblastoma Neuro2a cells, transient transfection with pmKate2-KCNA1m1
Briefly: Competitive binding of peptide pore blocker and A-HgTx to K-Kv1.1 on the plasma membrane of Neuro2a cells (confocal microscopy). The following applies: for Kd: complete medium (closed channels), Neuro2a cells, A-HgTx 2 nM, 60 min, Cheng-Prusoff from DC50, mean ± SEM, two independent experiments, SEM, read-out: Kap (apparent dissociation constant of complex with K-Kv1.1). Here is the method: To analyze the binding of A-HgTx, A-HgTx (0.25–4 nM) was added to cells in a complete medium for 60 min. To analyze competitive binding, A-HgTx (2 nM), together with the selected peptide (0.05–160 nM), was added to cells in a complete medium for 60 min.
To compare ligand binding with closed and open channels, ligands were added to cells (60 min, 37 °C) in a buffer (20 mM HEPES pH 7.4, 0.9 mM CaCl2, 0.5 mM MgCl2, 0.1% BSA) supplemented with 4 mM KCl and 150 mM NaCl (Na^+ buffer) or with 150 mM KCl (K^+ buffer).
The fluorescence of the K-Kv1.1 and K-Kv1.1wt channels was excited at 561 nm and detected in the 650–700 nm region. A-HgTx fluorescence was excited at 488 nm and detected in the 495–535 nm region. Sequential scanning was used to measure the cellular distributions of A-HgTx and mKate2 fluorescence in order to avoid interference of mKate2 fluorescence with cellular autofluorescence excited at 488 nm.
Quantitative analysis of the interaction of A-HgTx with K-Kv1.1 was carried out in accordance with the procedure developed previously for A-HgTx and the fluorescently labeled Kv1.3 channel. Briefly, the regions of interest with K-Kv1.1 on the plasma membrane were selected in the confocal images and used to create binary (0;1) masks that described the membranous distribution of K-Kv1.1. The confocal images of K-Kv1.1 and A-HgTx were multiplied by the corresponding mask, and the average fluorescence intensities of A-HgTx (Ili) and K-Kv1.1 (Ici) corrected for the background signal were calculated for each i-cell. Ratio Ri = Ili/Ici was calculated and averaged over 15–20 cells to obtain the Rav value and the standard deviation.
To analyze the competitive binding of the studied peptide pore blocker and A-HgTx to K-Kv1.1 on the cellular membrane, Rav data were plotted depending on the blocker concentration (C) at the constant A-HgTx concentration (L) and fitted with the following equation:Rav(C) = Rav0/(1 + C/DC50)(3) where DC50 is the blocker concentration displacing 50% of A-HgTx from the complex with K-Kv1.1, and Rav0 is Rav at C = 0.
The apparent dissociation constant (Kap) of the complex between the studied blocker and the K-Kv1.1 channel was calculated using the Cheng–Prusoff equation:Kap = DC50/(1 + L/Kd).(4)
Two independent experiments were performed, and the Kav data were averaged and presented as mean ± SEM. Fifteen to twenty-five treated cell images were the average value for each point on the curves of A-HgTx binding to the K-Kv1.1 channel.

For experiment [2], the system named is non-transfected Neuro2a cells. The note with it: cited from earlier work.
The target in a further experiment is Kv1.3 (Homo sapiens) (UniProt P22001). The following applies: cited from earlier work.
Sequence of Kv1.3 (Homo sapiens) (P22001 whole entry): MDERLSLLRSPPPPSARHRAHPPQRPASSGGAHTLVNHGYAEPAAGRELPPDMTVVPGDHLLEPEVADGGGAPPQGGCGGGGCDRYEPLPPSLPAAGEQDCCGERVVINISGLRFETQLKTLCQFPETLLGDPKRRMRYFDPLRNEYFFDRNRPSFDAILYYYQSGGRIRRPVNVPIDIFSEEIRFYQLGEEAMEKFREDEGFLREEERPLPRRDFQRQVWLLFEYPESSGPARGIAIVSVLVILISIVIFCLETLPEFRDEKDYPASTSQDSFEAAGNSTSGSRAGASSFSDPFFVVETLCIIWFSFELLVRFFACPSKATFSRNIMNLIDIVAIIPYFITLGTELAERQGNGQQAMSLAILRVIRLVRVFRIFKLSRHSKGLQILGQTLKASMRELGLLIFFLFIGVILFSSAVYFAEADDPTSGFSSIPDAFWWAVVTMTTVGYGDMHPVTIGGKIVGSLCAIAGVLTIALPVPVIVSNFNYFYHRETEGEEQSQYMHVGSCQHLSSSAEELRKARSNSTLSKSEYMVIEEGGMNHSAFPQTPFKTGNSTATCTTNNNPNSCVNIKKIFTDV
For experiment [3], the target named is T2, K-Kv1.1 channel (hKv1.1S369T with mKate2) (Homo sapiens, UniProt Q09470, S369T).
T2 construct: these fragments were combined and amplified using terminal primers to obtain the whole mutated gene; expressed in transfected cells; host or cells: mouse neuroblastoma Neuro2a cells, transient transfection with pmKate2-KCNA1m1
Briefly: Whole-cell patch-clamp of currents through K-Kv1.1 in Neuro2a cells. The note with it: HgTx1 2 nM, applied voltage from −10 to 70 mV, n = 10. Type of experiment: cell-based. Here is the method: Membrane ion currents through the K-Kv1.1 channel were recorded at room temperature by the patch-clamp technique using the standard whole-cell configuration as described earlier.
Briefly, Neuro2a cells attached to coverslips (10 mm in diameter) pre-coated with poly-D-lysine were immersed in a buffer (140 mM NaCl, 2.8 mM KCl, 2 mM MgCl2, 2 mM CaCl2, 10 mM glucose, 10 mM HEPES, pH 7.4) and perfused continuously. Micropipettes with a tip resistance of 6–8 MΩ were filled with a pipette solution containing 140 mM KCl, 6 mM CaCl2, 2 mM MgCl2, 2 mM MgATP, 0.4 mM NaGTP, 10 mM HEPES, 20 mM BAPTA/KOH (pH 7.3). The patches were routinely held at a holding potential of −40 mV. The potential was changed from −70 to +70 mV (20 mV step) using 200 ms pulses, which were applied incrementally with an interval of 20 s. Finally, the potential returned to the holding potential.
Cells were measured 24–48 h after transfection. The cells were selected by K-Kv1.1 fluorescence. The cells were analyzed if their input resistance was more than 350 MΩ. The currents were recorded using an EPC-10 amplifier (HEKA Elektronik, Stuttgart, Germany).
[…] The toxins were dissolved in a complete medium.
The measured concentration dependence of current inhibition through the K-Kv1.1 channel by A-HgTx was analyzed with the following equation:Irel(L) = 100/(1 + (IC50/L)^h) (1) where Irel is a decrease in current (%), L is the concentration of A-HgTx, IC50 is the concentration of A-HgTx that induces a 50% decrease in current, and h is the Hill coefficient.
On the technique in general: Patch clamp records ionic current or voltage across a cell membrane.

Experiment [4] has as its target T3, Kv1.1 (K-Kv1.1, mKate2-tagged) (Homo sapiens, UniProt Q09470).
T3 chain: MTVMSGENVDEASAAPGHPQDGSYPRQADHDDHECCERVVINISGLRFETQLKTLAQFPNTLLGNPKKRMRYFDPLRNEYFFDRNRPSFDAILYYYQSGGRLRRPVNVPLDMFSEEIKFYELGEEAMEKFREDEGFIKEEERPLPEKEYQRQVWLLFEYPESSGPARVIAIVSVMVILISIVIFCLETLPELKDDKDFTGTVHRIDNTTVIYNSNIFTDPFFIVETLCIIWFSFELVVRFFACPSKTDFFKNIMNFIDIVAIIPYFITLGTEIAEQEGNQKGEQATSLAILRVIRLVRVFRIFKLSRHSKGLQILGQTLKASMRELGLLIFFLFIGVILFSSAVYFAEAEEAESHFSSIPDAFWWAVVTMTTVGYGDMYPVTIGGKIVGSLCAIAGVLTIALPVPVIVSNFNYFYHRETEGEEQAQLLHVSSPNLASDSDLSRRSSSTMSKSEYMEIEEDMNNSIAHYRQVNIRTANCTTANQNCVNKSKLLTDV
Put plainly: competitive confocal fluorescence binding with A-HgTx, complete medium.

Experiment [5] has as its target T3, Kv1.1 (K-Kv1.1, mKate2-tagged). Briefly: competitive confocal fluorescence binding with A-HgTx, K+ buffer (open state).
Experiment [6] has the same target. Briefly: confocal fluorescence binding on Neuro2a cells, K+ buffer (open state).
Experiment [7] has the same target. Briefly: confocal fluorescence binding on Neuro2a cells, Na+ buffer (closed state).
Experiment [8] has the same target. Put plainly: confocal fluorescence binding on Neuro2a cells, complete medium.

Bridge positions count the residues as written; N and C are the ends. Peptide text beside a SMILES is read from it.

`CC[C@H](C)[C@@H]1NC(=O)[C@@H]2CSSC[C@@H]3NC(=O)[C@H](CCCCN)NC(=O)[C@H](CCCNC(=N)N)NC(=O)[C@H](CC(N)=O)NC(=O)[C@H](CCSC)NC(=O)[C@H](CSSC[C@H](NC(=O)[C@H](CO)NC(=O)[C@@H](NC(=O)[C@H](CC(N)=O)NC(=O)[C@@H](NC(=O)[C@@H]4CCCN4C(=O)[C@@H](NC(=O)CN)C(C)C)[C@@H](C)CC)C(C)C)C(=O)N[C@@H]([C@@H](C)O)C(=O)NCC(=O)N[C@@H](CO)C(=O)N4CCC[C@H]4C(=O)N[C@@H](CCC(N)=O)C(=O)N2)NC(=O)[C@H](CCCCN)NC(=O)CNC(=O)[C@H](Cc2ccccc2)NC(=O)[C@H](CCCNC(=N)N)NC(=O)[C@H](CCSC)NC(=O)CNC(=O)[C@H](C)NC(=O)[C@H](CC(=O)O)NC(=O)[C@H](CCCCN)NC(=O)[C@H](CSSC[C@@H](C(=O)N[C@H](C(=O)N2CCC[C@H]2C(=O)N[C@@H](CCCCN)C(=O)O)[C@@H](C)O)NC(=O)[C@H](Cc2c[nH]cn2)NC3=O)NC(=O)[C@@H]2CCCN2C(=O)[C@H](CCCCN)NC1=O` [AgTx2, agitoxin 2]: in experiment [1], the Kd worked out at 1.5 ± 0.7 nM.

Take charybdotoxin [ChTx]: in experiment [1] (A-HgTx (2 nM) displacement compared in complete medium, Na+ and K+ buffers), the “effect of channel state (closed or open) on affinity of K-Kv1.1 for the peptide” value is recorded as “does not affect the affinity”. Besides, the “effect on binding of A-HgTx (2 nM) to K-Kv1.1” value in experiment [1] (ChTx 100 nM) is reported as “does not affect the binding of A-HgTx to K-Kv1.1”. Moreover, the “sensitivity of background currents to the blocker” value in experiment [2] is given as “insensitive”.

`CC[C@H](C)[C@H](NC(=O)[C@H](CCC(=O)O)NC(=O)[C@@H](NC(=O)CN)C(C)C)C(=O)N[C@@H](CC(N)=O)C(=O)N[C@H](C(=O)N[C@@H](CCCCN)C(=O)N[C@H]1CSSC[C@@H]2NC(=O)[C@H](CCCCN)NC(=O)CNC(=O)[C@H](Cc3ccccc3)NC(=O)[C@H](CCCNC(=N)N)NC(=O)[C@H](CCSC)NC(=O)CNC(=O)[C@H](C)NC(=O)[C@H](CC(=O)O)NC(=O)[C@H](CCCCN)NC(=O)[C@@H]3CSSC[C@@H](C(=O)N[C@H](C(=O)N4CCC[C@H]4C(=O)N[C@@H](CCCCN)C(=O)O)[C@@H](C)O)NC(=O)[C@H](Cc4c[nH]cn4)NC(=O)[C@H](CSSC[C@H](NC(=O)[C@H](CCC(N)=O)NC(=O)[C@@H]4CCCN4C(=O)[C@H](CO)NC(=O)CNC(=O)[C@H](CO)NC1=O)C(=O)N[C@@H](CC(C)C)C(=O)N[C@@H](CCCCN)C(=O)N1CCC[C@H]1C(=O)N3)NC(=O)[C@H](CCCCN)NC(=O)[C@H](CCCNC(=N)N)NC(=O)[C@H](CC(N)=O)NC(=O)[C@H](CCSC)NC2=O)C(C)C` [KTx1, kaliotoxin 1]: the Kd in experiment [1] is 0.12 ± 0.08 nM.

For the molecule “A-HgTx (Atto-labelled hongotoxin 1) (from UniProt P59847)”, in the experiment with Kv1.3 (Homo sapiens), the Kd was 0.3 nM.

`CC[C@H](C)[C@@H]1NC(=O)CNC(=O)[C@H](Cc2ccccc2)NC(=O)[C@H](CCC(N)=O)NC(=O)[C@H](C)NC(=O)[C@H](CCCCN)NC(=O)[C@@H]2CSSC[C@@H](C(=O)N[C@@H](Cc3ccc(O)cc3)C(=O)N3CCC[C@H]3C(=O)N[C@@H](Cc3c[nH]cn3)C(=O)O)NC(=O)[C@H](CCCCN)NC(=O)[C@@H]3CSSC[C@H](NC(=O)[C@H](CCC(N)=O)NC(=O)[C@H](CCCCN)NC(=O)[C@@H]4CCCN4C(=O)[C@H](CO)NC(=O)[C@H]([C@@H](C)O)NC(=O)[C@@H](NC(=O)[C@H](CCCCN)NC(=O)[C@@H](NC(=O)[C@H](CC(=O)O)NC(=O)[C@@H](NC(=O)[C@@H](NC(=O)[C@@H](N)[C@@H](C)O)C(C)C)[C@@H](C)CC)C(C)C)CSSC[C@H](NC(=O)[C@H](CCCCN)NC(=O)[C@H](C)NC(=O)CNC(=O)[C@H](C)NC(=O)[C@H](CCCNC(=N)N)NC1=O)C(=O)N[C@@H](CCSC)C(=O)N[C@@H](CC(N)=O)C(=O)NCC(=O)N[C@@H](CCCCN)C(=O)N3)C(=O)N[C@@H](CC(C)C)C(=O)N1CCC[C@H]1C(=O)N1CCC[C@H]1C(=O)N2` [HgTx1, hongotoxin 1] (H-TVIDVKCTSPKQCLPPCKAQFGIRAGAKCMNGKCKCYPH-OH; disulfide 7-29, 13-34, 17-36): in experiment [3], the “decrease in the peak current amplitude” value is reported as 73 ± 8%.

On to TVINVKCTSPKQCLKPCKDLYGPHAGAKCMNGKCKCYNN [Ce1], for which the Kd in experiment [4] came to 11 nM; in experiment [5], 18 nM.

As for TVIDVKCTSPKQCLPPCKAQFGIRAGAKCMNGKCKCYPH [hongotoxin 1 (HgTx1)], the Kd is 0.03 nM in experiment [4] and 0.05 nM in experiment [5].

Turning to TIINVKCTSPKQCLPPCKAQFGQSAGAKCMNGKCKCYPH [margatoxin (MgTx)], the results for the Kd in [4] and in [5] were 0.3 nM and 0.5 nM, respectively.

TVIDVKCTSPKQCLPPCKAQFGIRAGAKCMNGKCKCYPH [Atto 488-hongotoxin 1 (A-HgTx)]: the Kd in [6] was determined as 0.8 nM; in experiment [7] it was 0.9 nM; in [8], 0.7 nM.
